Experimental data as given in US20150344570A1 (published 2015).
Changes are numbered by the printed parent chain. Names and notes keep the numbering of the source.

T1: FcγRIIa R extracellular domain with C-terminal His tag (human, UniProt P12318 34-217)
T1 construct: extracellular domain; Soluble receptor, R131 allotype; also called FcgRIIa R; FcgRIIaR; not shown: His tag at the C terminus
T1 sequence (looked up): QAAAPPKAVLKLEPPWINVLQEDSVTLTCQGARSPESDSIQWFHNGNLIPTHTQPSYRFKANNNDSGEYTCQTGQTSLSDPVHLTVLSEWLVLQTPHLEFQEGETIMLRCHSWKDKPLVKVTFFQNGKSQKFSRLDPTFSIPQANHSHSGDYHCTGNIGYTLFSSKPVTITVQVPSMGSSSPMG

T2: FcγRIIa H extracellular domain with C-terminal His tag (human, UniProt P12318 34-217)
T2 construct: extracellular domain; Soluble receptor, H131 allotype; also called FcgRIIa H; FcgRIIaH; not shown: His tag at the C terminus
T2 sequence (looked up): T1 sequence (looked up) with R134H

B1: GpH7-A5/GpH7-HA6/GpL16-k0 (antibody, human IgG1, kappa)
heavy 1: not shown
heavy 2: QVQLVQSGAEVKKPGASVTVSCKASGYTFTDYEMHWIRQPPGEGLEWIGAIDPKTGDTAYSESFQDRVTLTADKSTSTAYMELSSLTSEDTAVYYCTRFYSYTYWGQGTLVTVSSASTKGPSVFPLAPSSKSTSGGTAALGCLVKDYFPEPVTVSWNSGALTSGVHTFPAVLQSSGLYSLSSVVTVPSSSLGTQTYICNVNHKPSNTKVDKKVEPKSCDKTHTCPPCPAPELLWGPSVFLFPPKPKDTLMISRTPEVTCVVVDVSHEDPEVKFNWYVDGVEVHNAKTKPREEQYNSTYRVVSVLTVLHQDWLNGKEYKCKVSNKALRAPIEKTISKAKGQPREPQVYTLPPSRDELTKNQVSLTCLVKGFYPSDIAVEWESNGQPENNYKTTPPVLDSDGSFFLYSKLTVDKSRWQQGNVFSCSVMHEALHNHYTQESLSLSP
light: DIVMTQSPLSLPVTPGEPASISCQASESLVHSNRNTYLHWYLQKPGQSPQLLIYKVSNRFSGVPDRFSGSGSGTDFTLKISRVEAEDVGVYYCSQNTHVPPTFGQGTKVEIERTVAAPSVFIFPPSDEQLKSGTASVVCLLNNFYPREAKVQWKVDNALQSGNSQESVTEQDSKDSTYSLSSTLTLSKADYEKHKVYACEVTHQGLSSPVTKSFNRGEC
notes: H2 G236W and P329R
B2: GpH7-A48/GpH7-B3-15-02A/GpL16-k0 (antibody, human IgG1, kappa)
heavy 1: B1 heavy 2 with W234G, D354K, H433R, E437K
heavy 2: not shown
light: B1 light
notes: H1 P329R; H2 S298A
B3: GpH7-Kn033/GpH7-Hl033/GpL16-k0 (antibody, human IgG1, kappa)
heavy 1: not shown
heavy 2: not shown
light: B1 light
notes: Anti-glypican-3 IgG1 (G1d, C-terminal Gly-Lys removed) with knobs-into-holes alterations only; also called Kn033/Hl033
B4: GpH7-A5/GpH7-HA11/GpL16-k0 (antibody, human IgG1, kappa)
heavy 1: not shown
heavy 2: B1 heavy 2 with W234G, S296A
light: B1 light
notes: H2 S298A and P329R
B5: GpH7-Kn032/GpH7-Hl032/GpL16-k0 (antibody, human IgG1, kappa)
heavy 1: B1 heavy 2 with W234G, S237D, R327P, A328L, I330E, Y347C, T364W, E437K
heavy 2: B1 heavy 2 with W234G, S237D, R327P, A328L, I330E, D354C, T364S, L366A, Y405V, E437K
light: B1 light
notes: Anti-glypican-3 IgG1, knobs-into-holes; both H chains carry S239D/A330L/I332E; also called Kn032/Hl032
B6: GpH7-Kn045/GpH7-Hl048/GpL16-k0 (antibody, human IgG1, kappa)
heavy 1: B1 heavy 2 with L232Y, L233Y, W234A, H266D, S296A, R327P, Y347C, T364W, E437K
heavy 2: B1 heavy 2 with W234A, S237D, R327P, A328K, I330E, D354C, T364S, L366A, Y405V, E437K
light: B1 light
notes: Heterodimerized anti-glypican-3 IgG1, knobs-into-holes; also called Kn045/Hl048
B7: GpH7-Kn037/GpH7-Hl036/GpL16-k0 (antibody, human IgG1, kappa)
heavy 1: B1 heavy 2 with W234A, S237D, R327P, I330E, Y347C, T364W, E437K
heavy 2: B1 heavy 2 with W234A, S237D, R327P, I330E, D354C, T364S, L366A, Y405V, E437K
light: B1 light
notes: Anti-glypican-3 IgG1, knobs-into-holes; also called Kn037/Hl036
B8: GpH7-Kn045/GpH7-Hl055/GpL16-k0 (antibody, human IgG1, kappa)
heavy 1: B1 heavy 2 with L232Y, L233Y, W234A, H266D, S296A, R327P, Y347C, T364W, E437K
heavy 2: QVQLVQSGAEVKKPGASVTVSCKASGYTFTDYEMHWIRQPPGEGLEWIGAIDPKTGDTAYSESFQDRVTLTADKSTSTAYMELSSLTSEDTAVYYCTRFYSYTYWGQGTLVTVSSASTKGPSVFPLAPSSKSTSGGTAALGCLVKDYFPEPVTVSWNSGALTSGVHTFPAVLQSSGLYSLSSVVTVPSSSLGTQTYICNVNHKPSNTKVDKKVEPKSCDKTHTCPPCPAPELLAGPDVFLFPPKPKDTLMISRTPEVTCVVVDVSHEDPEVKFNWYVDGVEVHNAKTKPREELYNSTYRVVSVLTVLHQDWLNGKEYKCKVSNKALPMPEEKTISKAKGQPREPQVYTLPPSRCELTKNQVSLSCAVKGFYPSDIAVEWESNGQPENNYKTTPPVLDSDGSFFLVSKLTVDKSRWQQGNVFSCSVMHEALHNHYTQKSLSLSP
light: B1 light
notes: Heterodimerized anti-glypican-3 IgG1, knobs-into-holes; also called Kn045/Hl055

What was measured:
[1] = target: FcγRIIIa extracellular domain with C-terminal His tag (human, UniProt P08637 17-208); assay: SPR (Biacore), relative binding activity; GpH7-A5/GpH7-B3/GpL16-k0 = 100
[2] = target: T1, FcγRIIa R extracellular domain with …; assay: SPR (Biacore); ratio KD for FcγRIIb / KD for FcγRIIa R
Description: (§1) These antibodies were assessed for the binding activity to each FcγR according to the method described in Reference Example 2.
(§2) Analysis of interaction between objective antibody and the FcγR was carried out using Biacore T100 (GE Healthcare). HBS-EP+ (GE Healthcare) was used as the running buffer, and the measurement temperature was set to 25° C. Chips produced by immobilizing the antigen peptide by the amine coupling method to a Series S Sencor Chip CM5 (GE Healthcare), or alternatively, chips produced by allowing preliminarily biotinylated antigen peptides to interact with and immobilize onto a Series S Sensor Chip SA (certified) (GE Healthcare) were used. Antibodies of interest were captured onto an antigen peptide-immobilized chip, and allowed to interact to each FcγR diluted with running buffer. To regenerate and repeatedly use the chip, the antibodies captured on the chip were washed off by reacting 10 mM glycine-HCl, pH 1.5.

[3] = target: T2, FcγRIIa H extracellular domain with …; assay: SPR (Biacore); ratio KD for FcγRIIb / KD for FcγRIIa H
Description: as §1, §2

FcγRIIIa extracellular domain with C-terminal His tag, sequence (P08637 17-208): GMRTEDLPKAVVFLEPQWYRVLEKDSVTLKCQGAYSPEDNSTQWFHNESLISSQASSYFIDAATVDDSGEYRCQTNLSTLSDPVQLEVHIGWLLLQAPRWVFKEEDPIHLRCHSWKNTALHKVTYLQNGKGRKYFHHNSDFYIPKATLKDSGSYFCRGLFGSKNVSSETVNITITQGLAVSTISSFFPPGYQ

Binder | FcγRIIIa BINDING ACTIVITY [1] | A/I ratio [2] | A/I ratio [3]
B1 | 56% | – | –
B2 | 47% | – | –
B3 | – | 4.9 | 6.2
B4 | 84% | – | –
B5 | – | 1.8 | 0.93
B6 | – | 22 | 9.5
B7 | – | 13 | 8.6
B8 | – | 18 | 8.3
